Experimental data taken from publication PMC314469, “Protein Interaction Networks by Proteome Peptide Scanning” (PLoS Biology, 2004).

T1: amphyphisin SH3 (AMPH_HUMAN), P49418
T1 chain: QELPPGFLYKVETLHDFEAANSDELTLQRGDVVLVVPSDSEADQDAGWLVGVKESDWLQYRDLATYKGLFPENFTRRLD


How the values were obtained:
[1] = molecular target: T1, amphyphisin SH3 (AMPH_HUMAN), P49418; test: SPOT array
[2] = molecular target: endophilin SH3 (SH3G2_HUMAN), Q99962; test: SPOT array

normalised SPOT signal, Boehringer light units (BLU); mean over the file's lines of this peptide [1] | normalised SPOT signal, Boehringer light units (BLU); mean over the file's lines of this peptide [2] | Binder
205 | 314 | IGRNIARPWKLIYY [Q15361 592-605]
83.7 | 71.7 | IIHVISRPLKAPPA [Q9NRY3 784-797]
5480 | 1340 | IHSDPLRPRRETSH [P20849 240-253]
26.6 | 0 | ILDTLRRPKPVVDP [Q9NQU5 43-56]
62.4 | 230 | IMFDLRRPPQNHTY [Q9HCC8 352-365]
81.7 | 127 | IFDGIQRPLKDINE [P38607 97-110]
41.5 | 205 | IGYDFRRPLAQLRE [O60288 996-1009]
31.5 | 256 | ALQSPKRPRSPGSN [P78347 665-678]
30.9 | 23.1 | ILPDFKRPASFGTY [O43844 486-499]
68.6 | 628 | IKTPPKRPGGRRRG [Q15910 343-356]
32 | 134 | IIQELRRPKYTIYF [Q9Y4Z6 82-95]
7790 | 1310 | ILRPPRRPRKPKTL [Q9NYS8 1488-1501]
37.1 | 81 | IKILLRRPNEKKSK [P32246 223-236]
619 | 0 | IDPALLRPGRLDKS [O43933 989-1002]
27600 | 84800 | IPQRPSRPARRPLG [Q9HBL3 242-255]
111 | 165 | IFMYLRRPTEESVE [Q96RC0 189-202]
28.9 | 63.7 | IKFVIKRPELLTHS [P78347 534-547]
8510 | 3140 | ILGFPLRPNRGLYQ [O95972 116-129]
11100 | 7610 | IPERPLRPPSEKRA [Q9Y2W3 72-86]
17700 | 5800 | ILGPPRRPSRHDNS [Q9NZN5 600-613]
48 | 353 | ALRWLRRPEDRAFS [Q13472 9-22]

normalised SPOT signal, Boehringer light units (BLU); mean over the file's lines of this peptide [1] | normalised SPOT signal, Boehringer light units (BLU); mean over the file's lines of this peptide [2] | Binder
33 | 1550 | ILGSPARPPFSFQP [Q96C66 716-730]
15.8 | 49.2 | IIRQIRRPKNVVLR [O94887 105-118]
59 | 32.8 | IPREPGRPGKGNYW [Q12950 67-80]
39.7 | 36.9 | IFSTLKRPQVETKT [Q96NM3 19-32]
173 | 130 | ILLSISRPYKTKPT [Q9Y5J0 40-53]
73.4 | 1060 | IIPSPKRPVKLLSG [P04114 925-938]
1320 | 366 | ILPSLSRPARSDQA [O43149 568-581]
27.1 | 61.9 | IFGPLKRPIVEFSL [Q9NW13 566-579]
861 | 2290 | IQAPPPRPPKNQGL [Q9BYB6 252-266]
314 | 108 | IDPALRRPGRFDRE [Q96IW6 580-593]
113 | 365 | IEPQIRRPRSLSSP [O43165 457-470]
344 | 797 | ILSPPRRPRHSQPA [Q8WYU9 180-193]
131 | 128 | IGVSPGRPGKSVLF [Q92918 675-688]
123 | 58.3 | ILAKISRPKKRAKT [P48048 178-191]
118 | 458 | IKILPARPIKESEY [Q9P2U9 65-78]
107 | 96.8 | IKKDLSRPQKPQLV [P31629 870-883]
3250 | 3430 | IIRPPVRPPDPPSR [O60890 736-750]
4170 | 7170 | IFVAPKRPSPLPRA [Q9NZP6 64-77]
48.4 | 437 | IKPFPSRPPVLTQE [Q9P2K1 327-341]
225 | 4240 | IEEVPPRPPSPPKK [Q16348 18-32]
54.6 | 108 | ALRGLVRPHKKRKK [Q9NY93 500-513]
